Assay results reported in the nanobody polyreactivity screen of Harvey et al. (2022).

Assay: yeast display, Sf9 membrane polyspecificity reagent, FACS + sequencing; frameworks hold sequencing errors
In short: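 In a synthetic yeast display library (Saccharomyces cerevisiae BJ5465), nanobody expression was induced with galactose for 36–48 hours. FACS gates were set low and high (top ~1%) using anti-HA fluorescence for expression and streptavidin fluorescence for binding of the Sf9 membrane reagent. Each polyreactivity label is drawn from the gate of origin.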

Row | Sequence | polyreactivity (PSR sort gate)
1 | QVQLVESGGGLVQAGGSLRLSCAASGRTFDLNGMGWYRQAPGKERELVAAITRGGSTNYADSVKGRFTISRDNAKNTVYLQMNSLKPEDTAVYYCAADSSFWYYDRYDYWGQGTQVTVSS | low polyreactivity
2 | QVQLVESGGGLVQAGGSLRLSCAASGRTFDPYAMGWYIQAPGKERELVAAITSGDDTYYADSVKGRFTISRDNAKNTVYLQMNSLKPEDTAVYYCAADSFTPDYYSHDYWGQGTQVTVSS | low polyreactivity
3 | QVQLVESGGGLVQAGGSLRLSCAASGRTFDPYAMVWYRQAPGKERELVAAISSGGSTNYADSVKGRFTISRDNAMYTVYLQMNSLKPEDTAVYFCATDSGDGEGDYWGQGTQVTVSS | low polyreactivity
4 | QVQLVESGGGLVQAGGSLRLSCAASGRTFDRNAMGWYRQAPGKERELVAAITSRGGRTYYADSVKGRFTISRDNAKNTVYLQMNSLKPEDTAVYYCAAQGRGHRFGDSRDNYWGQGTQVTVSS | high polyreactivity
5 | QVQLVESGGGLVQAGGSLRLSCAASGRTFDRNAMGWYRQAPGKERELVARITIDGSTNYADSVKGRFTISRDNAKNTVYLQMNSLKPEDTAVYYCATDQLSLSWYFRPYDYGYWGQGTQVTVSS | high polyreactivity
6 | QVQLVESGGGLVQAGGSLRLSCAASGRTFDRNTMGWYRQAPGKERELVAAISGSSARTYYADSVKGRFTISRDNAKNTVYLQMNSLKPEDTAVYYCNAEYGARAQHYEGDSWGQGTQVTVSS | high polyreactivity
7 | QVQLVESGGGLVQAGGSLRLSCAASGRTFDRYAMGWYRQAPGKERELVAAITWSGGRTYYADSVKGRFTISRDNAKNTVYLQMNSLKPEDTAVYYCAADDPRDHWYTAMDYWGQGTQVTVSS | low polyreactivity
8 | QVQLVESGGGLVQAGGSLRLSCAASGRTFDRYAMGWYRQAPGKERELVATISRRSSITYYADSVKGRFTISRDNAKNTVYLQMNRLKPEDTAVYYCAATSLYPTWRRGYDYWGQGTQVTVSS | high polyreactivity
9 | QVQLVESGGGLVQAGGSLRLSCAASGRTFDSYTMGWYRQAPGKERELVARIRWSGGSTYYADSVKGRFTISRDNAKNTVYLQMNSLKPEDTAVYYCAVYQYVGYTMDYWGQGTQVTVSS | low polyreactivity
10 | QVQLVESGGGLVQAGGSLRLSCAASGRTFDTYAMGWYRQAPGKERELVAAISTTGRTYYADSVKGRFTISRDNAKNTVYLQMNSLKPEDTALYYCATDPTRSPTSDWGYYYWGQGTQVTVSS | low polyreactivity
11 | QVQLVESGGGLVQAGGSLRLSCAASGRTFDTYVMGWYRQAPGKERELVAAISIGGNTNYADSVKGRFTISRDNAKNTVYLQMNSLKPEDTAVYYCAKAWSGISSRDYDLDYWGQGTQVTVSS | low polyreactivity
12 | QVQLVESGGGLVQAGGSLRLSCAASGRTFDVNAMGWYRQAPGKERELVAAIRISGGSTYYADSVKGRFTISRDNAKITVYLQMNSLKPEDTAVYYCAAYERRYRNAYDYWGQGTQVTVSS | high polyreactivity
13 | QVQLVESGGGLVQAGGSLRLSCAASGRTFDVYAMAWYRQAPGKERELVATISWRGTSTYYADSVKGRFTISRDNAKNTVYLQMNSLKPADTAVYYCAKDPQPDLYGSWGQGTQVTVSS | high polyreactivity
14 | QVQLVESGGGLVQAGGSLRLSCAASGRTFDVYAMGWYRPAPGKERELVAAITSGGSTYYADSVKGRYTISRDNAKNTVFLLINSLKPEDTAVYYCATDVDKSLYDYWGQGTQVTVSS | low polyreactivity
15 | QVQLVESGGGLVQAGGSLRLSCAASGRTFDVYTMGWYRHAAGKERELVAAITARGARTYYADSVKGRFTISRDNAKNTVYLQMNSLKPEDTAVYYCAAKSYRHSLYDYWGQGTQVTVSS | high polyreactivity
16 | QVQLVESGGGLVQAGGSLRLSCAASGRTFDWYAMGWYRPAPGKERELVAAISRSGGSTYYADSVKGRFTISLDNAKNTVYLQMNSLKPEDTAVYYCAKRYAPDSRYYYWGQGTQVTVSS | high polyreactivity
17 | QVQLVESGGGLVQAGGSLRLSCAASGRTFDWYVMGWYRQAPGKERELVASIRGTGSTYYADSVKGRFTISRDNAKNTVYLQMNSLKPEDTAVYYCAARPGYLYSKYNYWGQGTQVTVSS | high polyreactivity
